The target of assay [1] is Human Granzyme B (Homo sapiens, UniProt P10144). Put plainly: Granzyme B biochemical inhibition assay (fluorescence). The conditions noted are these: 8 nM granzyme B; values below 8 nM reported as <8 nM. The procedure:
Compounds to be tested as inhibitors were manually prepared in a 2-fold serial dilutions in DMSO, spanning 200 uM to 0.39 uM in a Labcyte Echo qualified low dead volume 384-well plate. Then an ECHO acoustic liquid handler was used to dispense 125 nL of each compound from 384-well plate into a PerkinElmer Proxiplate-384 Plus F assay plate. For the positive control of inhibitor, (S)-3-((3S,6S)-3-((2S,3S)-2-acetamido-3-methylpentanamido)-4-oxo-1,2,3,4,6,7-hexahydroazepino[3,2,1-hi]indole-6-carboxamido)-4-oxobutanoic acid (see C. A. Willoughby et al./Bioorg. Med. Chem. Lett. 12 (2002) 2197-2200 2199) was used at 2 uM assay concentration. For no inhibition control, DMSO was used. Each compound was run in duplicate.
Once the compounds were dispensed in the plates, enzyme mix and substrate mix were prepared. Enzyme mix was prepared by preparing a mixture of 300 uL granzyme B (final concentration 8 nM) and 10.8 mL of assay buffer (from Sigma kit). Substrate mix was prepared by combining 500 uL substrate (from Sigma kit) and 3 mL of assay buffer (from Sigma kit). Enzyme mixture was loaded on BioRaptr and 9.25 uL were added to each well of the assay plate containing compounds. The plate was incubated at room temperature under a metal gasket cover for 30 minutes. Subsequently, 3.125 uL of substrate mix were added to each well using the BioRaptr, reaching a final assay volume of 12.5 uL, and the plate was monitored using a Pherastar FS by 1 read per minute for 30 minutes in fluorescence mode, excitation wavelength is 400 nm and emission wavelength is 510 nm.
The data analysis was performed first in excel, where the slopes of the measured fluorescence from each sample were determined using MARS software from BMG LABTECH. These rates were then multiplied by 10,000 for visualization purposes. The rates, multiplied by 10,000, were normalized to 0% and 100% activity based on the average values of the samples with either 2 uM inhibitor (S)-3-((3S,6S)-3-((2S,3S)-2-acetamido-3-methylpentanamido)-4-oxo-1,2,3,4,6,7-hexahydroazepino[3,2,1-hi]indole-6-carboxamido)-4-oxobutanoic acid, or no inhibitor respectively. All samples were then normalized against these values using the formula={100−[(sample−100% inhib)/0% inhib]}*100 to achieve a normalized percent inhibition. Normalized percent inhibition versus concentration inhibitor was then plotted in Graphpad Prism version 9.0.0 and a variable slope (four parameters) fit was calculated for each inhibitor.

Assay [2] deals with human Granzyme B (hGranzyme B) (Homo sapiens, UniProt P10144). Put plainly: Surface plasmon resonance (SPR) binding kinetics to hGranzyme B. To be noted: 25° C., 1:1 binding model, KD=kd/ka; read-out: Granzyme B SPR Kd. The procedure:
The kinetics of test peptide binding to human Granzyme B (hGranzyme B) was determined by SPR. All experiments were performed at 25° C. using the Biacore 8k+ instrument (Cytiva, Marlborough, MA). The Biacore 8k+ Insight Evaluation Software Version 3.0 was used to fit the data with a 1:1 binding model to determine the association rate constant ka (M^−1s^−1, where “M” ~equals molar and “s” ~equals seconds) and the dissociation rate constant kd (s^−1). These rate constants were used to calculate the equilibrium dissociation constant. KD (M)=kd/ka.
To measure the binding kinetics of peptides of interest, surfaces were prepared by a capture method to a Series S Streptavidin (SA) chip using a 1×HBS-EP+ running buffer (Cytiva). hGranzyme B was diluted to 10 μg/mL in IX HBS-EP+ and flowed over spot 2 of each flow cell on the chip at a flow rate of 10 ul/min for 20 s to achieve a level of capture of ~1100 RU. An unmodified spot 1 of each flow cell was used as a matrix binding control or reference surface. Binding kinetics were measured using single cycle kinetics at 25° C. by injecting 5 concentrations with 3-fold serial dilutions of test peptides from 0.01 μM to 1 μM. Compound dilutions were performed manually in a running buffer containing 1×HBS-EP+(Cytiva), and a final concentration of 2% DMSO. The interaction analyses over hGranzyme B, were performed using a 120 s association time and a 900 s dissociation time. All experiments were conducted at a flow rate of 50 μL/min with a data collection rate of 10 Hz.
Peptide dilution series included 2 zero concentration points (no compound) which were averaged and subtracted from the peptide concentration injection as DMSO control responses. Binding data acquired from the reference surface (matrix binding control) were subtracted from the binding data for hGranzyme B surface on the chip to determine specific binding. Next, the association phase data were solvent corrected to account for any signal fluctuation throughout the experiment due to subtle DMSO concentration differences. Corrected response data were analyzed using the Biacore 8k+ Evaluation Software Version 3.0 according to the manufacturer. SPR data for representative compounds of the disclosure are found in Table 8.
(SPR reads the build-up and loss of mass on a sensor chip optically.)

For assay [3], the target named is T1, human Granzyme B (human, UniProt P10144 21-247). Description: cell-based or functional assay.
T1 sequence (P10144 21-247 limits assumed): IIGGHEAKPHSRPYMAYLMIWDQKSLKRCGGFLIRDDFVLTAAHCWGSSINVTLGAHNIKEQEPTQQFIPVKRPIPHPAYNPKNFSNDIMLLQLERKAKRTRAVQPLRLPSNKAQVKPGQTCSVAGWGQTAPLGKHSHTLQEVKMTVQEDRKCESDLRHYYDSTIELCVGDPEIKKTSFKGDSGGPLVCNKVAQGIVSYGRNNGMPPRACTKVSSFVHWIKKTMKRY
Assay [4] concerns the target T1, human Granzyme B. Put plainly: SPR, Biacore 8k+, hGranzyme B captured on SA chip, single cycle kinetics, 1:1 model.

From patent publication US20260207798A1, “CYCLIC PEPTIDES AS PET IMAGING AGENTS OF GRANZYME B” (priority 2022, published 2026) come the findings set out here.

Numbered stars: 1 amine (or outer) side, 2 acyl side, 3 side chain; on linkers, the order of the positions; unused ones are H or OH. Bridge positions count the residues as written; N and C are the ends. Square brackets hold non-standard residues; d marks the D form. Primed or numbered codes have the meaning given here. Peptide text beside a SMILES is read from it. I, II: the chains in the order shown. * marks the point of attachment. X3 = CC(C)(C)OC(=O)NCCC(=O)N(CCOCCOCCOCCOCCC(=O)[*:1])CCOCCOCCOCCOCCC(=O)[*:2]; NOTA‑1 = 1,4,7-triazacyclononane-N,N',N''-triacetic acid phenyl thiourea; X1 = O=C(O)CN1CCN(CC(=O)O)CC(Cc2ccc(NC(=S)*)cc2)N(CC(=O)O)CC1; Pro(trans-4-F) = O=C(O)[C@@H]1C[C@@H](F)CN1; PEG2′ = not defined here; Propionyl = CCC(=O)*

Sequence of Human Granzyme B (P10144 21-247): as the sequence (P10144 21-247 limits assumed) above

Consider `C[C@@H](O)[C@@H]1NC(=O)[C@H](CC(=O)O)NC(=O)[C@@H]2CCCN2C(=O)[C@H](CO)NC(=O)[C@H](CCC(N)=O)NC(=O)[C@H](CC(=O)O)NC(=O)[C@H](CCC(=O)O)NC(=O)[C@H](Cc2ccccc2)NC(=O)[C@H](CC(N)=O)NC(=O)[C@H](Cc2ccccc2)NC(=O)CSC[C@@H](C(=O)NCC(N)=O)NC(=O)[C@@H]2CCCN2C(=O)[C@H](CCC(N)=O)NC(=O)[C@H](Cc2c[nH]c3ccccc23)NC1=O` [Compound 25a, *F.N.F.E.D.Q.S.P.D.T.W.Q.P.*C.G.NH2] ({CH2CO}-FNFEDQSPDTWQPCG-NH2; thioether N-14), for which, at Human Granzyme B [1], the IC50 is below 8 nM.

Turning to `C[C@@H](O)[C@@H]1NC(=O)[C@H](CC(=O)O)NC(=O)[C@@H]2C[C@@H](F)CN2C(=O)[C@H](CO)NC(=O)[C@H](CCC(N)=O)NC(=O)[C@H](CC(=O)O)NC(=O)[C@H](CCC(=O)O)NC(=O)[C@H](Cc2ccccc2)NC(=O)[C@H](CC(N)=O)NC(=O)[C@H](Cc2ccccc2)NC(=O)CSC[C@@H](C(=O)NCC(N)=O)NC(=O)[C@@H]2CCCN2C(=O)[C@H](CCC(N)=O)NC(=O)[C@H](Cc2c[nH]c3ccccc23)NC1=O` [Compound 38a, *F.N.F.E.D.Q.S.Prot4F.D.T.W.Q.P.*C.G.NH2] ({CH2CO}-FNFEDQS[Pro(trans-4-F)]DTWQPCG-NH2; thioether N-14), the IC50 on Human Granzyme B [1] is below 8 nM.

For the molecule `C[C@@H]1NC(=O)[C@H](CO)NC(=O)[C@H](CCC(N)=O)NC(=O)[C@H](CC(=O)O)NC(=O)[C@H](CCC(=O)O)NC(=O)[C@H](Cc2ccccc2)NC(=O)[C@H](CC(N)=O)NC(=O)[C@H](Cc2ccccc2)NC(=O)CSC[C@@H](C(=O)NCC(=O)NCC(=O)N[C@@H](CCCCNC(=S)Nc2ccc(CC3CN(CC(=O)O)CCN(CC(=O)O)CCN3CC(=O)O)cc2)C(N)=O)NC(=O)[C@@H]2CCCN2C(=O)[C@H](CCC(N)=O)NC(=O)[C@H](Cc2c[nH]c3ccccc23)NC(=O)[C@H]([C@@H](C)O)NC(=O)[C@H](CC(=O)O)NC1=O` (stereo partly drawn) [Compound 2a, *F.N.F.E.D.Q.S.A.D.T.W.Q.P.*C.G.G.K(NOTA-1).NH2] ({CH2CO}-FNFEDQSADTWQPCGGK(X1)-NH2; thioether N-14), the IC50 against Human Granzyme B [1] was below 8 nM.

Turning to `C[C@@H]1NC(=O)[C@H](CO)NC(=O)[C@H](CCC(N)=O)NC(=O)[C@H](CC(=O)O)NC(=O)[C@H](CCC(=O)O)NC(=O)[C@H](Cc2ccccc2)NC(=O)[C@H](CC(N)=O)NC(=O)[C@H](Cc2ccccc2)NC(=O)CSC[C@@H](C(=O)NCC(=O)NCC(=O)N[C@@H](CCCCNC(=O)CCOCCOCCOCCOCCN(CCOCCOCCOCCOCCC(=O)NCCCC[C@H](NC(=O)CNC(=O)CNC(=O)[C@@H]2CSCC(=O)N[C@@H](Cc3ccccc3)C(=O)N[C@@H](CC(N)=O)C(=O)N[C@@H](Cc3ccccc3)C(=O)N[C@@H](CCC(=O)O)C(=O)N[C@@H](CC(=O)O)C(=O)N[C@@H](CCC(N)=O)C(=O)N[C@@H](CO)C(=O)N[C@@H](C)C(=O)N[C@@H](CC(=O)O)C(=O)N[C@@H]([C@@H](C)O)C(=O)N[C@@H](Cc3c[nH]c4ccccc34)C(=O)N[C@@H](CCC(N)=O)C(=O)N3CCC[C@H]3C(=O)N2)C(N)=O)C(=O)CCNC(=O)OC(C)(C)C)C(N)=O)NC(=O)[C@@H]2CCCN2C(=O)[C@H](CCC(N)=O)NC(=O)[C@H](Cc2c[nH]c3ccccc23)NC(=O)[C@H]([C@@H](C)O)NC(=O)[C@H](CC(=O)O)NC1=O` [Compound 7a, (*F.N.F.E.D.Q.S.A.D.T.W.Q.P.*C.G.G.K.NH2)-bis(PEG4)-β-Ala(Boc)-(*F.N.F.E.D.Q.S.A.D.T.W.Q.P.*C.G.G.K.NH2)] (I: {CH2CO}-FNFEDQSADTWQPCGGK-NH2 / II: {CH2CO}-FNFEDQSADTWQPCGGK-NH2; linker I:17-II:17 via X3; thioether I:N-I:14, II:N-II:14), in assay [2], the Kd was below 0.1 nM.

In the case of `CCC(=O)NCCCC[C@H](NC(=O)CNC(=O)CNC(=O)[C@@H]1CSCC(=O)N[C@@H](Cc2ccccc2)C(=O)N[C@@H](CC(N)=O)C(=O)N[C@@H](Cc2ccccc2)C(=O)N[C@@H](CCC(=O)O)C(=O)N[C@@H](CC(=O)O)C(=O)N[C@@H](CCC(N)=O)C(=O)N[C@@H](CO)C(=O)N2C[C@H](F)C[C@H]2C(=O)N[C@@H](CC(=O)O)C(=O)N[C@@H]([C@@H](C)O)C(=O)N[C@@H](Cc2c[nH]c3ccccc23)C(=O)N[C@@H](CCC(N)=O)C(=O)N2CCC[C@H]2C(=O)N1)C(N)=O` [Compound 14a, *F.N.F.E.D.Q.S.Prot4F.D.T.W.Q.P.*C.G.G.K(Prop).NH2] ({CH2CO}-FNFEDQS[Pro(trans-4-F)]DTWQPCGGK(Propionyl)-NH2; thioether N-14), in assay [2], the Kd amounted to 5.1 nM.

B1: Compound 5a (peptide)
peptide 1: {‑CH2C(O)‑}-FNFEDQSADTWQPCGGK-NH2
peptide 2: {‑CH2C(O)‑}-FNFEDQSADTWQPCGGK-NH2
modifications: linker I:17-II:17 via PEG2′; also: dimer of two macrocycles linked by PEG2 between Lys17 side chains, thioether at chain A 14 to a chain's N-terminus, thioether at chain B 14 to a chain's N-terminus
notes: Dimer of two macrocycles linked by PEG2
For the molecule B1, the “Human Granzyme B IC50 (fluorogenic substrate enzyme inhibition assay)” value in the assay with human Granzyme B [3] is below 8 nM.

B2: Compound 12a (peptide)
peptide: {CH2CO}-FNFEDQS[Pro(trans-4-F)]DTWQPCGGK(NOTA‑1)-NH2
modifications: thioether N-14
Take B2: the Kd in the assay with human Granzyme B [4] was 1.6 nM. Besides, the “Human Granzyme B IC50 (fluorogenic substrate enzyme inhibition assay)” value with human Granzyme B [3] was below 8 nM.

B3: Compound 2a (peptide)
peptide: {CH2CO}-FNFEDQSADTWQPCGGK(NOTA‑1)-NH2
modifications: thioether N-14
The molecule B3 displayed a Kd with human Granzyme B [4] of 13.5 nM. Besides, the “Human Granzyme B IC50 (fluorogenic substrate enzyme inhibition assay)” value with human Granzyme B [3] is below 8 nM.

B4: Compound 1a (peptide)
peptide: {CH2CO}-FNFEDQSADTWQPCG-NH2
modifications: thioether N-14
SMILES: C[C@@H]1NC(=O)[C@H](CO)NC(=O)[C@H](CCC(N)=O)NC(=O)[C@H](CC(=O)O)NC(=O)[C@H](CCC(=O)O)NC(=O)[C@H](Cc2ccccc2)NC(=O)[C@H](CC(N)=O)NC(=O)[C@H](Cc2ccccc2)NC(=O)CSC[C@@H](C(=O)NCC(N)=O)NC(=O)[C@@H]2CCCN2C(=O)[C@H](CCC(N)=O)NC(=O)[C@H](Cc2c[nH]c3ccccc23)NC(=O)[C@H]([C@@H](C)O)NC(=O)[C@H](CC(=O)O)NC1=O
In the assay with human Granzyme B [4], B4 registered an equilibrium dissociation constant (Kd) of 19.8 nM. Besides, the “Human Granzyme B IC50 (fluorogenic substrate enzyme inhibition assay)” value in the assay with human Granzyme B [3] is below 8 nM.

One may read the IC50 as the concentration needed to halve the response being measured. Read a low IC50 as greater potency in that assay. For orientation: Kd means the concentration at which binding is half-saturated.
